From paper PMC3374753
Where two headings read alike, the source gives them in different places.

What was measured:
[1] = molecular target: retromer cargo-selective complex (CSC), trimer of VPS35, VPS29 and VPS26 (UniProt Q96QK1); assay: ITC
[2] = molecular target: retromer cargo-selective complex (CSC), trimer of VPS35, VPS29 and VPS26 (UniProt Q96QK1); assay: ITC; remark: listed apart in the source

Row | Substance | Kd [1] | stoichiometry N [1] | Kd of the second site (two-site model, one site fixed to 16.6 μM) [1] | Kd [2]
1 | FC fragment of FAM21 (938-1341 without 1029-1047) as used in ITC (domain or fragment) | 2.4 µM | 0.42 | – | –
2 | R19-20 for ITC (FAM21 1250-1317, Trp, His6) (domain or fragment) | 6.8 µM | 0.39 | – | –
3 | R21 for ITC (FAM21 1309-1341, Trp, His6) (domain or fragment) | 16.6 µM | 0.82 | – | –
4 | R20-21 for ITC (FAM21 1278-1341, Trp, His6) (domain or fragment) | 2.5 to 16.6 µM | 0.49 | 3 µM | 3.2 µM
5 | FN fragment of FAM21 (356-600) as used in ITC (domain or fragment) | 11.5 µM | 0.32 | – | –
